In patent publication US7709002:
Values belong to the substance of their own block, whether it stands above or below them.

How the values were obtained:
HLA-A2 (human) [1] = experiment: T2 bioassay (peptide 50 µg/ml + b2m 3 µg/ml, overnight), flow cytometry, stained with anti-HLA-A2 MAb
HLA-A2 (human) [2] = experiment: T2 bioassay (peptide 50 µg/ml + b2m 3 µg/ml, overnight), flow cytometry, stained with pan class I MAb W6/32
[3] = biological target: ras p21 proteins of the Calu-1 lung carcinoma cell line (K-ras Cys12 mutation) (human) (UniProt P01116); experiment: cell-based or functional assay
[4] = biological target: ras p21 proteins of the SW480 colon carcinoma cell line (K-ras Val12 mutation) (human) (UniProt P01116); experiment: sandwich ELISA, RAS 10 capture of SW480 lysate, rat anti-mouse B7.1 in place of the detection MAb
[5] = biological target: ras p21 proteins of the Calu-1 lung carcinoma cell line (K-ras Cys12 mutation) (human) (UniProt P01116); experiment: sandwich ELISA, RAS 10 capture of Calu-1 lysate, rat anti-mouse B7.1 in place of the detection MAb
[6] = biological target: ras p21 proteins of the HT-29 colon carcinoma cell line (no known ras codon 12 point mutation) (human) (UniProt P01116); experiment: sandwich ELISA, RAS 10 capture of HT29 lysate, rat anti-mouse B7.1 in place of the detection MAb
[7] = biological target: MHC class I (HLA class I) molecules; experiment: flow cytometry, Calu-1 cells, W6/32
[8] = biological target: MHC class I (HLA class I) molecules; experiment: T2 bioassay, no peptide (b2m 3 µg/ml only), flow cytometry, staining of T2 cells with pan class I MAb W6/32; baseline
[9] = biological target: MHC class I (HLA class I) molecules; experiment: flow cytometry, HT29 cells, W6/32
[10] = biological target: MHC class I (HLA class I) molecules; experiment: flow cytometry, SW480 cells, W6/32
[11] = biological target: ras p21 proteins of the HT-29 colon carcinoma cell line (no known ras codon 12 point mutation) (human) (UniProt P01116); experiment: flow cytometry, fixed permeabilised HT29 cells, RAS 10 at 3 µg/ml
[12] = biological target: ras p21 proteins of the SW480 colon carcinoma cell line (K-ras Val12 mutation) (human) (UniProt P01116); experiment: flow cytometry, fixed permeabilised SW480 cells, RAS 10 at 10 µg/ml
[13] = biological target: ras p21 proteins of the Calu-1 lung carcinoma cell line (K-ras Cys12 mutation) (human) (UniProt P01116); experiment: flow cytometry, fixed permeabilised Calu-1 cells, RAS 10 at 10 µg/ml
[14] = biological target: ras p21 proteins of the HT-29 colon carcinoma cell line (no known ras codon 12 point mutation) (human) (UniProt P01116); experiment: flow cytometry, fixed permeabilised HT29 cells, RAS 10 at 1 µg/ml
[15] = biological target: ras p21 proteins of the Calu-1 lung carcinoma cell line (K-ras Cys12 mutation) (human) (UniProt P01116); experiment: flow cytometry, fixed permeabilised Calu-1 cells, RAS 10 at 1 µg/ml
[16] = biological target: ras p21 proteins of the SW480 colon carcinoma cell line (K-ras Val12 mutation) (human) (UniProt P01116); experiment: flow cytometry, fixed permeabilised SW480 cells, RAS 10 at 3 µg/ml
[17] = biological target: ras p21 proteins of the HT-29 colon carcinoma cell line (no known ras codon 12 point mutation) (human) (UniProt P01116); experiment: flow cytometry, fixed permeabilised HT29 cells, RAS 10 at 10 µg/ml
[18] = biological target: ras p21 proteins of the SW480 colon carcinoma cell line (K-ras Val12 mutation) (human) (UniProt P01116); experiment: flow cytometry, fixed permeabilised SW480 cells, RAS 10 at 1 µg/ml
[19] = biological target: ras p21 proteins of the Calu-1 lung carcinoma cell line (K-ras Cys12 mutation) (human) (UniProt P01116); experiment: flow cytometry, fixed permeabilised Calu-1 cells, RAS 10 at 3 µg/ml
HLA-A2 (human) [20] = experiment: T2 bioassay, isotype-matched control MAb staining of T2 cells incubated with ras5-14(G12)
HLA-A2 (human) [21] = experiment: T2 bioassay, isotype-matched control MAb staining of T2 cells incubated with ras5-12(V12)
HLA-A2 (human) [22] = experiment: T2 bioassay, isotype-matched control MAb staining of T2 cells incubated with ras5-14(C12)
[23] = biological target: ras p21 proteins of the Calu-1 lung carcinoma cell line (K-ras Cys12 mutation) (human) (UniProt P01116); experiment: flow cytometry, fixed permeabilised Calu-1 cells, isotype-matched control UPC-10
HLA-A2 (human) [24] = experiment: T2 bioassay, isotype-matched control MAb staining of T2 cells incubated with ras5-13(V12)
HLA-A2 (human) [25] = experiment: T2 bioassay, isotype-matched control MAb staining of T2 cells incubated with CEA571-579
HLA-A2 (human) [26] = experiment: T2 bioassay, isotype-matched control MAb staining of T2 cells incubated with ras8-16(V12)
[27] = biological target: ras p21 proteins of the SW480 colon carcinoma cell line (K-ras Val12 mutation) (human) (UniProt P01116); experiment: flow cytometry, fixed permeabilised SW480 cells, isotype-matched control UPC-10
[28] = biological target: ras p21 proteins of the HT-29 colon carcinoma cell line (no known ras codon 12 point mutation) (human) (UniProt P01116); experiment: flow cytometry, fixed permeabilised HT29 cells, isotype-matched control UPC-10
HLA-A2 (human) [29] = experiment: T2 bioassay, isotype-matched control MAb staining of T2 cells incubated with ras5-14(V12)
HLA-A2 (human) [30] = experiment: T2 bioassay, no peptide, flow cytometry, isotype-matched control MAb staining of T2 cells
HLA-A2 (human) [31] = experiment: T2 bioassay, isotype-matched control MAb staining of T2 cells incubated with ras5-14(D12)
HLA-A2 (human) [32] = experiment: T2 bioassay, isotype-matched control MAb staining of T2 cells incubated with ras5-17(D12)
[33] = biological target: ras p21 proteins of the SW480 colon carcinoma cell line (K-ras Val12 mutation) (human) (UniProt P01116); experiment: sandwich ELISA, RAS 10 capture, Y13-238 detection, SW480 lysate 7.5 µg protein
[34] = biological target: ras p21 proteins of the SW480 colon carcinoma cell line (K-ras Val12 mutation) (human) (UniProt P01116); experiment: sandwich ELISA, RAS 10 capture, Y13-238 detection, SW480 lysate 75 µg protein
[35] = biological target: ras p21 proteins of the HT-29 colon carcinoma cell line (no known ras codon 12 point mutation) (human) (UniProt P01116); experiment: sandwich ELISA, RAS 10 capture, Y13-238 detection, HT29 lysate 75 µg protein
[36] = biological target: ras p21 proteins of the HT-29 colon carcinoma cell line (no known ras codon 12 point mutation) (human) (UniProt P01116); experiment: sandwich ELISA, RAS 10 capture, Y13-238 detection, HT29 lysate 7.5 µg protein
[37] = biological target: ras p21 proteins of the Calu-1 lung carcinoma cell line (K-ras Cys12 mutation) (human) (UniProt P01116); experiment: sandwich ELISA, RAS 10 capture, Y13-238 detection, Calu-1 lysate 7.5 µg protein
[38] = biological target: ras p21 proteins of the Calu-1 lung carcinoma cell line (K-ras Cys12 mutation) (human) (UniProt P01116); experiment: sandwich ELISA, RAS 10 capture, Y13-238 detection, Calu-1 lysate 75 µg protein

MFI (HLA-A2 (human) [1]): 680
MFI (HLA-A2 (human) [2]): 991
Substance: CEA571-579 peptide (from UniProt P06731 571-579)

Proliferation Response (3H-thymidine uptake, cpm) of the CD4+ T cell line of patient 43 to Calu-1 extract (250 µg protein) on wells coated with RAS 10, with BLCL [3]: 80500 cpm
Substance: pan-ras MAb, clone RAS 10

Immunoreactivity (A490) [4]: 0.333 A490
Immunoreactivity (A490) [5]: 0.299 A490
Immunoreactivity (A490) [6]: 0.283 A490
Substance: rat IgG2a anti-mouse B7.1 MAb (antibody)

Proliferation Response (3H-thymidine uptake, cpm) of the CD4+ T cell line of patient 43 to Calu-1 extract (250 µg protein) on wells coated with isotype-matched MAb UPC-10, with BLCL [3]: 7320 cpm
Substance: isotype-matched (IgG2a) MAb UPC-10

MFI [7]: 1620
Percent Positive Cells [7]: 93.4%
MFI [8]: 230
MFI [9]: 1310
Percent Positive Cells [9]: 93.5%
MFI [10]: 1180
Percent Positive Cells [10]: 84.2%
Substance: pan HLA class I MAb W6/32 (antibody)

MFI [11]: 304
Percent Positive Cells [11]: 83.4%
MFI [12]: 631
Percent Positive Cells [12]: 83.4%
MFI [13]: 332
Percent Positive Cells [13]: 90.6%
MFI [14]: 233
Percent Positive Cells [14]: 58.6%
MFI [15]: 176
Percent Positive Cells [15]: 59.8%
MFI [16]: 386
Percent Positive Cells [16]: 82.8%
MFI [17]: 423
Percent Positive Cells [17]: 93.1%
MFI [18]: 273
Percent Positive Cells [18]: 67%
MFI [19]: 225
Percent Positive Cells [19]: 87.8%
Substance: pan-ras MAb, clone RAS 10 (antibody)

MFI (HLA-A2 (human) [20]): 41.3
MFI (HLA-A2 (human) [21]): 44.2
MFI (HLA-A2 (human) [22]): 61.4
Percent Positive Cells [23]: 1%
MFI (HLA-A2 (human) [24]): 54.1
MFI (HLA-A2 (human) [25]): 48.4
MFI (HLA-A2 (human) [26]): 39.6
Percent Positive Cells [27]: 5.3%
Percent Positive Cells [28]: 11.6%
MFI (HLA-A2 (human) [29]): 38.1
MFI (HLA-A2 (human) [30]): 84
MFI (HLA-A2 (human) [31]): 50.8
MFI (HLA-A2 (human) [32]): 46.5
Substance: isotype-matched (IgG2a) MAb UPC-10 (antibody)

Immunoreactivity (A490) [33]: 1.5 A490
Immunoreactivity (A490) [34]: 1.59 A490
Immunoreactivity (A490) [35]: 1.49 A490
Immunoreactivity (A490) [36]: 0.99 A490
Immunoreactivity (A490) [37]: 1.29 A490
Immunoreactivity (A490) [38]: 1.5 A490
Substance: ras MAb, clone Y13-238 (antibody)
